The record followed here is FireProtDB (doi:10.1021/bi982158q).

Usually Tm stands for the temperature at which the thermal transition is half complete.

The conditions of the data set: Bos taurus, pH 7, K2HPO4 5 mM, transition: 2, reversible: Yes, whole UniProt chain shown; for Tm: Thermal.

B1: Cytochrome b5 wild type, P00171 (protein)
chain: MAEESSKAVKYYTLEEIQKHNNSKSTWLILHYKVYDLTKFLEEHPGGEEVLREQAGGDATENFEDVGHSTDARELSKTFIIGELHPDDRSKITKPSESIITTIDSNPSWWTNWLIPAISALFVALIYHLYTSEN
For the protein B1, where the note is “25 °C, Urea, Absorbance”, the denaturant m value worked out at 1.26 kcal/mol/M, the “denaturant midpoint (higher = more stable)” value is 6.9 M and the unfolding free energy turned out to be 8.7 kcal/mol. For the setting “Absorbance”, the Tm was 75.2 °C. In addition, the melting temperature (Tm) (Fluorescence) was determined as 50.1 °C.
